T1: NifD-NifK proteins from K. oxytoca (expressed from MIT2.1 in E. coli JM109)
T1 chain 1: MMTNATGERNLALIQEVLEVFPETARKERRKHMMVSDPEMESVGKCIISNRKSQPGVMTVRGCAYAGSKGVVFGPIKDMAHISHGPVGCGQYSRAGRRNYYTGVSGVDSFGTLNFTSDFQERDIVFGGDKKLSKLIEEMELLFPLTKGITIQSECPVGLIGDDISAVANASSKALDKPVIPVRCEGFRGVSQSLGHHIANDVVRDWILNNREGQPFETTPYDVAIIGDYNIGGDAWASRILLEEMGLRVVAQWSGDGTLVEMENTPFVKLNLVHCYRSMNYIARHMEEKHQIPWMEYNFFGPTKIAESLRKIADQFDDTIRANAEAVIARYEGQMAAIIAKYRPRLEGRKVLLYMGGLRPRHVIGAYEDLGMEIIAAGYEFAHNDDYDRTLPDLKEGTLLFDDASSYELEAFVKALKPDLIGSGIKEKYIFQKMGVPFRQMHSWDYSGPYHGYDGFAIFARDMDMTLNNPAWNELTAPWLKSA
T1 chain 2: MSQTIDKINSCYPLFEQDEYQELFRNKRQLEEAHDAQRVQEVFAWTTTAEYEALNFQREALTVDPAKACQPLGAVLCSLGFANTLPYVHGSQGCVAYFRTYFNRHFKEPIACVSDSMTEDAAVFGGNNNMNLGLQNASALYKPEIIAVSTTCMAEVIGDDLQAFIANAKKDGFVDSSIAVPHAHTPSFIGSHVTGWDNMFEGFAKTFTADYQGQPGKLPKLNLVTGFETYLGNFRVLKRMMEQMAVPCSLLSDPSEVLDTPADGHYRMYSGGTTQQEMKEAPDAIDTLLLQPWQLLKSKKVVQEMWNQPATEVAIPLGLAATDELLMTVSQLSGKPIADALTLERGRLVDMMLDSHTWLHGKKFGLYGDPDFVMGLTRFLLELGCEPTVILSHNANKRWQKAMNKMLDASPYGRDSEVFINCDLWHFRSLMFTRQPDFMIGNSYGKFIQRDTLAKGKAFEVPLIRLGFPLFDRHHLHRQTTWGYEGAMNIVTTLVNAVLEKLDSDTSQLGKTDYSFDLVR


Target: T1, NifD-NifK proteins from K. oxytoca …

Protein	acetylene reduction assay (ethylene production) in E. coli JM109 with modified MIT2.1
M laminosus NifH (Genbank Accession No. Q47917) (protein) MTENIRQIAFYGKGGIGKSTTSQNTLAAMAEMGQRIMIVGCDPKADSTRLMLHSKAQTTVLHLAAERGAVEDLELEEVMLTGFRGVKCVESGGPEPGVGCAGRGIITAINFLEENGAYQDLDFVSYDVLGDVVCGGFAMPIREGKAQEIYIVTSGEMMAMYAANNIARGILKYAHSGGVRLGGLICNSRKVDREAELIENLAERLNTQMIHFVPRDNIVQHAELRRMTVNEYAPDSNQSQEYRALAKKIINNTKLTIPTPMEMDELEALLIEYGILDDDTKHADIIGKPAEASAK	none of the JM109 strains carrying the modified MIT2.1 plasmids with the NifH variants reduced acetylene, instead showing the same background level of ethylene production as JM109 carrying the negative control plasmid pB-ori
M thermautotrophicus NifH (Genbank Accession No. AAB86034) (protein) MVRKIAIYGKGGIGKSTTQQNTAAAMSYFHGKNVMIHGCDPKADSTRLILGGKMQTTMMDTLRELGEVACTPDKVIETGFGGIKCVESGGPEPGVGCAGRGVITAITLMERHGVYEKDLDFVFFDVLGDVVCGGFAMPVRDGKAEEIYIVASGEMMALYAANNICKGMVKYARQSGVRLGGIICNSRNVDGEKELLEEFCERIGTQMIHFVPRDNIVQKAEFNKKSVIEFDPECNQSQEYRELARKIIENKDFVIPEPMTMDEMEELVVKYGVMD	none of the JM109 strains carrying the modified MIT2.1 plasmids with the NifH variants reduced acetylene, instead showing the same background level of ethylene production as JM109 carrying the negative control plasmid pB-ori
M. infernus NifH (Genbank Accession No. WP_013099459) (protein) MSFDEIAPNAKKVAIYGKGGIGKSTTTQNTAAALAYYYKLKGMIHGCDPKADSTRMILHGKPQETVMDVLREEGEEGVTLEKVRKVGFCGIYCVESGGPEPGVGCAGRGVITAVNLMKELGGYPDDLDFLFFDVLGDVVCGGFAMPLRDGLAKEIYIVSSGEMMALYAANNIAKGILKYAEQSGVRLGGIICNSRNVDGERELMEEFCDKLGTKLIHFIPRDNIVQKAEFNKMTVVEFAPDHPQALEYKKLGKKIMDNDELVIPTPLSMDELEKLVEKYGLYDK	none of the JM109 strains carrying the modified MIT2.1 plasmids with the NifH variants reduced acetylene, instead showing the same background level of ethylene production as JM109 carrying the negative control plasmid pB-ori
Carboxydothermus pertinax NifH (Genbank Accession No. WP_075859892) (protein) MTRKIAIYGKGGIGKSTTQQNTAAALAYFYGKKVLIHGCDPKADCTRLILGGKPQETVMDTMRELGEDAVTIDRVVKTGFCGIKCVESGGPEPGVGCAGRGVITAISLMEELGAYTPDLDFIFFDVLGDVVCGGFAMPVREGKAQEIYIVASGEMMALYAANNICRGMVKYAEQSGVRLGGIICNSRNVDGERELMEEFCSKIGTQMIHFIPRDNIVQKAEFNRQTVTQFDPNCNQAQEYRELARKIIENDMFVIPKPMTMDEMENLVIKYGLLE	none of the JM109 strains carrying the modified MIT2.1 plasmids with the NifH variants reduced acetylene, instead showing the same background level of ethylene production as JM109 carrying the negative control plasmid pB-ori
C. tepidum NifH (Genbank Accession No. WP_010933198) (protein) MRKVAIYGKGGIGKSTTTQNTVAGLAEAGKKVMVVGCDPKADSTRLLLGGLQQKTVLDTLREEGEEVELEDIIKEGYRNTRCTESGGPEPGVGCAGRGIITSVNLLEQLGAYDDEWELDYVFYDVLGDVVCGGFAMPIRDGKAEEIYIVCSGEMMAMYAANNICKGILKYADAGGVRLGGLICNSRKVDNEREMIEELARRLGTQMIHFVPRDNFVQRAEINRKTVIDFDPTHPQADEYRALAKKIDENKMFVIPKPLEIDELESLLIEFGIAN	none of the JM109 strains carrying the modified MIT2.1 plasmids with the NifH variants reduced acetylene, instead showing the same background level of ethylene production as JM109 carrying the negative control plasmid pB-ori
Geobacter sp. NifH (Genbank Accession No. WP_015837436) (protein) MRQIAIYGKGGIGKSTTTQNTVAGLASIGKKVMIVGCDPKADSTRLILHAKAQSTVMDLVRELGTVEDLELEDVMKVGYGDVKCVESGGPEPGVGCAGRGVITAINFLEENGAYTPDLDFVFYDVLGDVVCGGFAMPIREGKAEEIYIVCSGEMMAMYAANNIAKGILKYATSGKVRLAGLICNARKTDKEYELIDALAKKLGTQMIHFVPRDNQVQRAELRRMTVIEYSPEHPQAQEYRTLAQKIADNKMLVVPTPLEMEELEDLLMEFGIMEAEDESIVGVAEAAAV	none of the JM109 strains carrying the modified MIT2.1 plasmids with the NifH variants reduced acetylene, instead showing the same background level of ethylene production as JM109 carrying the negative control plasmid pB-ori
H. modesticaldum NifH (Genbank Accession No. WP_012282218) (protein) MRQIAIYGKGGIGKSTTTQNTVSALAEMGKKVMIVGCDPKADSTRLILHSKAQATVMDLAREKGTVEDLELSDVLLTGFADIRCAESGGPEPGVGCAGRGVITAINFLEENGAYTPDLDYVFYDVLGDVVCGGFAMPIRENKAQEIYIVTSGEMMAMYAANNIARGILKYASSGKVRLGGLICNSRKVDKEYELIDELATRLGTQMIHFLPRDNQVQRAELRRMTVIEYSPDHPQADEYRALAKKIDENKKLVIPTPLTMDELEDLLIQYGILEDEETAAAKLG	none of the JM109 strains carrying the modified MIT2.1 plasmids with the NifH variants reduced acetylene, instead showing the same background level of ethylene production as JM109 carrying the negative control plasmid pB-ori
